In PMC5017906:

Molecular target: nAChRs on CA1 hippocampal interneurons (not stated (rat brain slices in the text, NMRI mice in the methods))

B1: Recombinant human GST-tagged Lypd6 (LY6/PLAUR domain-containing 6), Q86Y78 23-147 (natural protein)
chain: AQSRDFTVKDIIYLHPSTTPYPGGFKCFTCEKAADNYECNRWAPDIYCPRETRYCYTQHTMEVTGNSISVTKRCVPLEECLSTGCRDSEHEGHKVCTSCCEGNICNLPLPRNETDATFATTSPIN
  attenuation of inward currents induced by the non-specific nAChR agonist DMPP (50 μM) in CA1 hippocampal interneurons in the presence of 6 μM Lypd6, whole-cell patch clamp: 74.8%
  average reduction of inward currents induced by nicotine (100 μM) in CA1 hippocampal interneurons in the presence of 6 μM Lypd6, whole-cell patch clamp at −60 mV: 57.4%
